The supplement of paper PMC9876800

system: peptide library, one residue held at a place counted from the S/T acceptor; experiment: relative phosphorylation of the sub-library (ratio to the mean residue at this position); human; higher = residue favoured; conditions: Y fixed; at +1
Procedure, shortened: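 Relative sub-library phosphorylation is the ratio of each sub-library's signal to the mean residue at that position. The signal came from phosphorimaging of spots on streptavidin membranes, quantified by densitometry, after purified recombinant kinases reacted with biotinylated degenerate peptide sub-libraries in 384-well plates. Reactions held 50 μM peptide and 50 μM ATP spiked with γ-32P-ATP for 90 min under kinase-specific conditions.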

Sequence of MOK, construct: aa1-343 (Q9UQ07 1-343, looked up): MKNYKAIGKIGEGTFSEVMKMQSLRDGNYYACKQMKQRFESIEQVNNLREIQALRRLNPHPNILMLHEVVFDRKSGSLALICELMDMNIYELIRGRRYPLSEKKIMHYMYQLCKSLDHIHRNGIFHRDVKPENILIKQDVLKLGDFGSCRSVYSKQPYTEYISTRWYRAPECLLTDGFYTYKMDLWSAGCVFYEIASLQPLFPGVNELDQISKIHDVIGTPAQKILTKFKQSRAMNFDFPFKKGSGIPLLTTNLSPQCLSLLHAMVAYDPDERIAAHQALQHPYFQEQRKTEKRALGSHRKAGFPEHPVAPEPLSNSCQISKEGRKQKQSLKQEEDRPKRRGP
Sequence of EIF2AK1, construct: Full length (Q9BQI3 whole entry, looked up): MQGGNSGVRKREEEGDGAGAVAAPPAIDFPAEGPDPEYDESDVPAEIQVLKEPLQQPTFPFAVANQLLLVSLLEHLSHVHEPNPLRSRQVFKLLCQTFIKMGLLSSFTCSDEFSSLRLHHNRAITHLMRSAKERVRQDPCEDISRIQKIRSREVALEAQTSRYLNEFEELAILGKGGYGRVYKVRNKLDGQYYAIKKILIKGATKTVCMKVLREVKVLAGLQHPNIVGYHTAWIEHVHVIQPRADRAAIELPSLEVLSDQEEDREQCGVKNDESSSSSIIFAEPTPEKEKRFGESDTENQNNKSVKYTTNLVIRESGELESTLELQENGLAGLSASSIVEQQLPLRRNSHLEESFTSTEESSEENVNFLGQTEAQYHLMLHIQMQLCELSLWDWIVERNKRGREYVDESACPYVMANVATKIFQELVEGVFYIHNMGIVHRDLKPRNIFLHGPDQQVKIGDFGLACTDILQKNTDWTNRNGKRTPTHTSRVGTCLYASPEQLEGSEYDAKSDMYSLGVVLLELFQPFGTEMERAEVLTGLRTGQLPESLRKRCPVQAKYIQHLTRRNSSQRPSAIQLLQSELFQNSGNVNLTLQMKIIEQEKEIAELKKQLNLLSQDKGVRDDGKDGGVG
Sequence of TTBK1, construct: Full length (Q5TCY1 whole entry, looked up): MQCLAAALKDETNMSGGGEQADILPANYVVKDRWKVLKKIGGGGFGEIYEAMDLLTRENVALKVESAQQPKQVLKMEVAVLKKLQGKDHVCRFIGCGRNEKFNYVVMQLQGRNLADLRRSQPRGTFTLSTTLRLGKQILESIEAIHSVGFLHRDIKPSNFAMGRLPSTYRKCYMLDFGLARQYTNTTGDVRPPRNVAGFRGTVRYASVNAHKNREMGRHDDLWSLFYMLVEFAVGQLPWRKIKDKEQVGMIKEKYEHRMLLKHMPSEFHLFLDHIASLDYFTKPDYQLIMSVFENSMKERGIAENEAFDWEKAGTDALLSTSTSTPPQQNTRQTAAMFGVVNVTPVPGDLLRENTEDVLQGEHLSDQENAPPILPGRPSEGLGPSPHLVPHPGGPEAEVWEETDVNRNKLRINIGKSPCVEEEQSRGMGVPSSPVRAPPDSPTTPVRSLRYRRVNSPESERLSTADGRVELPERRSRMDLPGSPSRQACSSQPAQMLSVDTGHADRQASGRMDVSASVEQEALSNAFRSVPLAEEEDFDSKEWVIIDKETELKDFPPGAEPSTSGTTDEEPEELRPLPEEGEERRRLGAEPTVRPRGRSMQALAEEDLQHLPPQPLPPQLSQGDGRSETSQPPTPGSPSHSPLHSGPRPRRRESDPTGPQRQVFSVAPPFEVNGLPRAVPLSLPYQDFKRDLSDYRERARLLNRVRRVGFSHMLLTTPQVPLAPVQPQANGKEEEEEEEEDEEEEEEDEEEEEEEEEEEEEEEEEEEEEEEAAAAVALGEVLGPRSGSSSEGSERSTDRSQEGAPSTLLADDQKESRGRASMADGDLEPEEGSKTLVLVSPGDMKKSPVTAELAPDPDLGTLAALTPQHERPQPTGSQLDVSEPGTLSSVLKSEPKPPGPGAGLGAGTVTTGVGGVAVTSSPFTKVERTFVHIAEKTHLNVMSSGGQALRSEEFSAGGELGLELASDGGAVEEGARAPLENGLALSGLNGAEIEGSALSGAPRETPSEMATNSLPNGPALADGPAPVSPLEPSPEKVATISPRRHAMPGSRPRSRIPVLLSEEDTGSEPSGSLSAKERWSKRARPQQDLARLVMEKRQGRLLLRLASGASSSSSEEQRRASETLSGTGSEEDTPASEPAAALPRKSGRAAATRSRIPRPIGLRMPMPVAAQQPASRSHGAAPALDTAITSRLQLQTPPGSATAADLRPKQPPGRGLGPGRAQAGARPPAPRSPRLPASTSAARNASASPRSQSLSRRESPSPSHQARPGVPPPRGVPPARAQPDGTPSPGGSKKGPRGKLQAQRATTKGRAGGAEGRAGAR
Sequence of CAMK1, construct: Full length (Q14012 whole entry, looked up): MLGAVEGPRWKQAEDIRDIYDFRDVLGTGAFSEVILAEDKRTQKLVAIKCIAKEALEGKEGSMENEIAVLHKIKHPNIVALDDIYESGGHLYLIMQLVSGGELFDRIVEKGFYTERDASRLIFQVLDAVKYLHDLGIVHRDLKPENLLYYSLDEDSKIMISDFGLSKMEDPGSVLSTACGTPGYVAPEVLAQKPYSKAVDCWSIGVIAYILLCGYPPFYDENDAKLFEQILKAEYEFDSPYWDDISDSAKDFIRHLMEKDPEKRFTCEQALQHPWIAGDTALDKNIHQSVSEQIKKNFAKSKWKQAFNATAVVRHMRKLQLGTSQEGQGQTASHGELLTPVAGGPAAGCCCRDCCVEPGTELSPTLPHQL
Sequence of CHEK2, construct: Full length (O96017 whole entry, looked up, the tested form may be a part): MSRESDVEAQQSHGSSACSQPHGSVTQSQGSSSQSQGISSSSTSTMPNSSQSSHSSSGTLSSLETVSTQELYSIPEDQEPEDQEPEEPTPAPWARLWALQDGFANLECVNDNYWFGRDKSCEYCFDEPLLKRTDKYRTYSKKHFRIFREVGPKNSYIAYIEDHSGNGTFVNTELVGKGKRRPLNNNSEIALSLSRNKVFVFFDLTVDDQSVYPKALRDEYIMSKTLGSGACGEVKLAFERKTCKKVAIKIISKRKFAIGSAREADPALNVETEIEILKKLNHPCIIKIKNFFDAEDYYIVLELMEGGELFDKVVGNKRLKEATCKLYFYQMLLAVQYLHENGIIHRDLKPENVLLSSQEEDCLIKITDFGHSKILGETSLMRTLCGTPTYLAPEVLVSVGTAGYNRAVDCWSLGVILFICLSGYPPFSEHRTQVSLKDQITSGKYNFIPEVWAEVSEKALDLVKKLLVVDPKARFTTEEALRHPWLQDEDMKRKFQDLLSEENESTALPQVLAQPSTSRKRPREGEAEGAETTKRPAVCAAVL
Sequence of MAP4K3, construct: aa1-380 (Q8IVH8 1-380, looked up): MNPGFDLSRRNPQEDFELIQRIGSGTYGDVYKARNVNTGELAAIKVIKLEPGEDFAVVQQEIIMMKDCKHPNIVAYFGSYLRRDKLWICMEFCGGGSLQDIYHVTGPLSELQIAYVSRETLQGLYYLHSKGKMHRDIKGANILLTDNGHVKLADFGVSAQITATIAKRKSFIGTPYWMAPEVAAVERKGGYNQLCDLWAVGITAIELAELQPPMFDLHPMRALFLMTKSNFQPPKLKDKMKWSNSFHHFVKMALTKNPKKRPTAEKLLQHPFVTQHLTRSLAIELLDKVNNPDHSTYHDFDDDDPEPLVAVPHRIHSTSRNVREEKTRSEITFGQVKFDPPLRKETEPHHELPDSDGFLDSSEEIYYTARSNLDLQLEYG
Sequence of MAP3K10, construct: aa1-449 (Q02779 1-449, looked up): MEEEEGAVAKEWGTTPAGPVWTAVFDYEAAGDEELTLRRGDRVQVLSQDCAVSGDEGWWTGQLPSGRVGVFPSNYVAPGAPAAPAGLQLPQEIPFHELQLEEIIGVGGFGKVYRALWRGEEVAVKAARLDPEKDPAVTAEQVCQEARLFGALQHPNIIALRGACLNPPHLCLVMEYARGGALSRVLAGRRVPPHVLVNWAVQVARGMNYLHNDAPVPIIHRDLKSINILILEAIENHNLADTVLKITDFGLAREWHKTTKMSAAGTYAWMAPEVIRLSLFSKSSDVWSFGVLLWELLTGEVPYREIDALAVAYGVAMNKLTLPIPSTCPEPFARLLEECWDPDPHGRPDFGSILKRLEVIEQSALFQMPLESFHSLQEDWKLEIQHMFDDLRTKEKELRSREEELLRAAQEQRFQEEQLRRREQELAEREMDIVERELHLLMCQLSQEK

Compared with “CHEK2, construct: Full length (from UniProt O96017)”, “MAP4K3, construct: aa1-380 (from UniProt Q8IVH8)” is lower in relative phosphorylation: 1.09 for the first, 0.821 for the second.

Going from “CAMK1, construct: Full length (from UniProt Q14012)” to “MAP3K10, construct: aa1-449 (from UniProt Q02779)”, the relative phosphorylation falls from 0.99 to 0.978.

First: EIF2AK1, construct: Full length (from UniProt Q9BQI3)
Second: PKN3, construct: Full length (from UniProt Q6P5Z2)
The relative phosphorylation of the first is higher: 1.2 for the first, 0.751 for the second.

same assay, conditions: Y fixed; at +2

Going from “MOK, construct: aa1-343 (from UniProt Q9UQ07)” to “TTBK1, construct: Full length (from UniProt Q5TCY1)”, the relative phosphorylation rises from 1.04 to 1.57.

First: CHEK2, construct: Full length (from UniProt O96017)
Second: MAP4K3, construct: aa1-380 (from UniProt Q8IVH8)
The relative phosphorylation of the first is higher: 1.55 for the first, 0.615 for the second.

Going from “CAMK1, construct: Full length (from UniProt Q14012)” to “MAP3K10, construct: aa1-449 (from UniProt Q02779)”, the relative phosphorylation rises from 1.34 to 1.39.

Compared with “EIF2AK1, construct: Full length (from UniProt Q9BQI3)”, “PKN3, construct: Full length (from UniProt Q6P5Z2)” is lower in relative phosphorylation: 1.25 for the first, 0.898 for the second.

same assay, conditions: Y fixed; at +3

Going from “MOK, construct: aa1-343 (from UniProt Q9UQ07)” to “TTBK1, construct: Full length (from UniProt Q5TCY1)”, the relative phosphorylation rises from 1.19 to 1.32.

Compared with “CHEK2, construct: Full length (from UniProt O96017)”, “MAP4K3, construct: aa1-380 (from UniProt Q8IVH8)” is lower in relative phosphorylation: 1.39 for the first, 0.772 for the second.

Going from “CAMK1, construct: Full length (from UniProt Q14012)” to “MAP3K10, construct: aa1-449 (from UniProt Q02779)”, the relative phosphorylation rises from 0.935 to 1.16.

Compared with “EIF2AK1, construct: Full length (from UniProt Q9BQI3)”, “PKN3, construct: Full length (from UniProt Q6P5Z2)” is higher in relative phosphorylation: 1.19 for the first, 1.49 for the second.

same assay, conditions: Y fixed; at +4

Going from “MOK, construct: aa1-343 (from UniProt Q9UQ07)” to “TTBK1, construct: Full length (from UniProt Q5TCY1)”, the relative phosphorylation rises from 0.921 to 1.01.

Going from “CHEK2, construct: Full length (from UniProt O96017)” to “MAP4K3, construct: aa1-380 (from UniProt Q8IVH8)”, the relative phosphorylation falls from 1.12 to 0.885.

Going from “CAMK1, construct: Full length (from UniProt Q14012)” to “MAP3K10, construct: aa1-449 (from UniProt Q02779)”, the relative phosphorylation rises from 0.716 to 0.832.

First: EIF2AK1, construct: Full length (from UniProt Q9BQI3)
Second: PKN3, construct: Full length (from UniProt Q6P5Z2)
The relative phosphorylation of the first is higher: 1.15 for the first, 0.823 for the second.

same assay, conditions: Y fixed; at -1

Compared with “MOK, construct: aa1-343 (from UniProt Q9UQ07)”, “TTBK1, construct: Full length (from UniProt Q5TCY1)” is lower in relative phosphorylation: 1.08 for the first, 1.03 for the second.

Going from “CHEK2, construct: Full length (from UniProt O96017)” to “MAP4K3, construct: aa1-380 (from UniProt Q8IVH8)”, the relative phosphorylation rises from 0.924 to 1.06.

Compared with “CAMK1, construct: Full length (from UniProt Q14012)”, “MAP3K10, construct: aa1-449 (from UniProt Q02779)” is higher in relative phosphorylation: 0.753 for the first, 1.15 for the second.

First: EIF2AK1, construct: Full length (from UniProt Q9BQI3)
Second: PKN3, construct: Full length (from UniProt Q6P5Z2)
The relative phosphorylation of the first is higher: 1.46 for the first, 0.812 for the second.

same assay, conditions: Y fixed; at -2

Going from “MOK, construct: aa1-343 (from UniProt Q9UQ07)” to “TTBK1, construct: Full length (from UniProt Q5TCY1)”, the relative phosphorylation rises from 0.323 to 0.721.

First: CHEK2, construct: Full length (from UniProt O96017)
Second: MAP4K3, construct: aa1-380 (from UniProt Q8IVH8)
The relative phosphorylation of the first is lower: 1.04 for the first, 1.63 for the second.

Substance “CAMK1, construct: Full length (from UniProt Q14012)” has a relative phosphorylation of 0.488.
